± gives the uncertainty stated by the source.
Assay: self-splicing fitness, log relative to wild type (ln ratio); higher = more splicing; Tetrahymena group I intron in knt gene, E. coli kanamycin selection, DiMSum; sequences stand for … in CUCUCU…GGAGGGAAAAGUUAUCAGGCAUGCACCUGGUAGCUAGUCUUUAAACCAAUAGAUUGCAUCGGUUUAAAAGGCAAGACCGUCAAAUUGCGGGAAAGGGGUCAACAGCCGUUCAGUACCAAGUCUCAGGGGAAACUUUGAGAUGGCCUUGCAAAGGGUAUGGUAAUAAGCUGACGGACAUGGUCCUAACCACGCAGCCAAGUCCUAAGUCAACAGAUCUUCUGUUGAUAUGGAUGCAGUUCACAGACUAAAUGUCGGUCGGGGAAGAUGUAUUCUUCUCAUAAGAUAUAGUCGGACCUCUCCUUAAUGGGAGCUAGCGGAUGAAGUGAUGCAACACUGGAGCCGCUGGGAACUAAUUUGUAUGCGAAAGUAUAUUGAUUAGUUUUGGAGUACUCGUGGUCG
How it was run: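 The eight P1ex-region nucleotides of an intron in the knt kanamycin-resistance gene on pET-22b(+) were all randomised and the library put into E. coli BL21(DE3). Six replicate transformations were grown overnight at 37°C or 30°C on LB agar with or without 25 μg/mL kanamycin, together with 100 μg/mL carbenicillin, 50 μM IPTG and 0.2% rhamnose. Colonies were pooled and amplicon-sequenced on an Illumina HiSeq 2500. Fitness from DiMSum is the error-weighted combination of wild-type-normalised replicate fold changes, kanamycin over none.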

Row | Sequence | self-splicing fitness (ln) (30 °C) | self-splicing fitness (ln) (37 °C)
1 | GCUCAGCAAUAUUACGGAGU | -4.36 ± 0.29 | -3.35 ± 0.32
2 | GCUCAGCAAUAUUACGGCCA | -1.77 ± 0.15 | -0.805 ± 0.16
3 | GCUCAGCAAUAUUACGGGGG | -3.18 ± 0.17 | -1.92 ± 0.16
4 | GCUCAGCAAUAUUACGGGUG | -0.435 ± 0.055 | -0.211 ± 0.074
5 | GCUCAGCAAUAUUACGGUAU | -1.14 ± 0.061 | 0.0133 ± 0.075
6 | GCUCAGCAAUAUUACGUAGA | -0.134 ± 0.073 | -0.191 ± 0.084
7 | GCUCAGCAAUAUUACGUCGU | -0.158 ± 0.057 | 0.486 ± 0.082
8 | GCUCAGCAAUAUUACGUCUC | -0.67 ± 0.12 | -0.754 ± 0.1
9 | GCUCAGCAAUAUUACGUUGC | -1.99 ± 0.17 | -1.27 ± 0.16
10 | GCUCAGCAAUAUUACGUUGG | -1.96 ± 0.17 | -2.46 ± 0.19
11 | GCUCAGCAAUAUUACGUUGU | -0.847 ± 0.042 | -0.0979 ± 0.057
12 | GCUCAGCAAUAUUACGUUUA | -1.44 ± 0.09 | -0.861 ± 0.083
13 | GCUGAGCAAUAUUACGAAAC | -2.42 ± 0.17 | 0.274 ± 0.14
14 | GCUGAGCAAUAUUACGACCA | -3.18 ± 0.41 | -1.57 ± 0.39
15 | GCUGAGCAAUAUUACGACGG | -1.27 ± 0.17 | -0.245 ± 0.27
16 | GCUGAGCAAUAUUACGACUG | -2.16 ± 0.35 | -0.83 ± 0.38
17 | GCUGAGCAAUAUUACGAGAG | -2.49 ± 0.23 | -2.41 ± 0.22
18 | GCUGAGCAAUAUUACGAGGG | -2.71 ± 0.16 | -2.45 ± 0.31
19 | GCUGAGCAAUAUUACGAGUG | -0.948 ± 0.14 | -1.2 ± 0.17
20 | GCUGAGCAAUAUUACGCAGA | -2.47 ± 0.29 | -1.6 ± 0.32
21 | GCUGAGCAAUAUUACGCGGA | -4.07 ± 0.35 | -2.82 ± 0.23
22 | GCUGAGCAAUAUUACGCGUC | -1.94 ± 0.17 | -0.941 ± 0.21

Row | Sequence | self-splicing fitness (ln) (30 °C) | self-splicing fitness (ln) (37 °C)
23 | GCUGAGCAAUAUUACGGCAA | -1.52 ± 0.21 | -2.9 ± 0.31
24 | GCUGAGCAAUAUUACGGGUA | -1.3 ± 0.091 | -1.15 ± 0.1
25 | GCUGAGCAAUAUUACGUACG | -2.59 ± 0.27 | -1.16 ± 0.29
26 | GCUGAGCAAUAUUACGUAGG | -1.82 ± 0.084 | -1.24 ± 0.12
27 | GCUGAGCAAUAUUACGUAUG | -3.21 ± 0.16 | -2.61 ± 0.33
28 | GCUGAGCAAUAUUACGUCUA | -2.85 ± 0.22 | -1.06 ± 0.14
29 | GCUGAGCAAUAUUACGUGAG | -1.73 ± 0.11 | -1.28 ± 0.095
30 | GCUGAGCAAUAUUACGUUAC |  | -2.37 ± 0.32
31 | GCUUAGCAAUAUUACGACAC | -0.819 ± 0.21 | -0.721 ± 0.16
32 | GCUUAGCAAUAUUACGACAG | -2.97 ± 0.3 | -1.93 ± 0.47
33 | GCUUAGCAAUAUUACGACAU | -1.26 ± 0.014 | -0.365 ± 0.033
34 | GCUUAGCAAUAUUACGAGUU | -1.62 ± 0.091 | -0.362 ± 0.11
35 | GCUUAGCAAUAUUACGAUCG | -1.19 ± 0.1 | -0.254 ± 0.12
36 | GCUUAGCAAUAUUACGAUGG | -1.54 ± 0.1 | -0.452 ± 0.097
37 | GCUUAGCAAUAUUACGCCAA | -4.1 ± 0.43 | 
38 | GCUUAGCAAUAUUACGCCAU |  | -2.2 ± 0.39
39 | GCUUAGCAAUAUUACGCCGC | -3.07 ± 0.5 | 
40 | GCUUAGCAAUAUUACGCGAC | -3.07 ± 0.29 | -1.73 ± 0.2
41 | GCUUAGCAAUAUUACGCGAG | -2.04 ± 0.22 | -2.56 ± 0.33
42 | GCUUAGCAAUAUUACGCGGU | -3.52 ± 0.2 | -3.42 ± 0.28
43 | GCUUAGCAAUAUUACGGCCA |  | -0.846 ± 0.27
44 | GCUUAGCAAUAUUACGGCCC | 0.0255 ± 0.31 | 

— the supplement of paper PMC7877785
